Source: paper PMC2760636 (The Journal of urology, 2009)

Assays:
HLA-DR DRB1*0101 (human) = assay: radioligand binding
HLA-DR DRB1*0301 (human) = assay: radioligand binding
HLA-DR DRB1*0401 (human) = assay: radioligand binding
HLA-DR DRB1*0404 (human) = assay: radioligand binding
HLA-DR DRB1*0405 (human) = assay: radioligand binding
HLA-DR DRB1*0701 (human) = assay: radioligand binding
HLA-DR DRB1*0802 (human) = assay: radioligand binding
HLA-DR DRB1*0901 (human) = assay: radioligand binding
HLA-DR DRB1*1302 (human) = assay: radioligand binding
HLA-DR DRB1*1501 (human) = assay: radioligand binding
HLA-DR DRB1*1101 (human) = assay: radioligand binding
HLA-DR DRB4*0101 (human) = assay: radioligand binding
HLA-DR DRB5*0101 (human) = assay: radioligand binding
[1] = test system: men with chronic prostatitis/chronic pelvic pain syndrome; conditions: CP/CPPS; cited from earlier work
CD4 lymphocytes = conditions: CP/CPPS; cited from earlier work
[2] = test system: CD4 and CD8 T cells from men with GP; conditions: men with granulomatous prostatitis; cited from earlier work

Row | IC50 (HLA-DR DRB1*0101 (human)) [nM] | IC50 (HLA-DR DRB1*0301 (human)) [nM] | IC50 (HLA-DR DRB1*0401 (human)) [nM] | IC50 (HLA-DR DRB1*0404 (human)) [nM] | IC50 (HLA-DR DRB1*0405 (human)) [nM] | IC50 (HLA-DR DRB1*0701 (human)) [nM] | IC50 (HLA-DR DRB1*0802 (human)) [nM] | IC50 (HLA-DR DRB1*0901 (human)) [nM] | IC50 (HLA-DR DRB1*1302 (human)) [nM] | IC50 (HLA-DR DRB1*1501 (human)) [nM] | IC50 (HLA-DR DRB1*1101 (human)) [nM] | IC50 (HLA-DR DRB4*0101 (human)) [nM] | IC50 (HLA-DR DRB5*0101 (human)) [nM] | Molecule | improvement of symptoms versus placebo (in words) [1] | recognition by CD4 lymphocytes (in words) (CD4 lymphocytes) | recognition by CD4 and CD8 T cells in GP (in words) [2]
1 | 108 | > 20000 | 93 | 3.3 | 67 | 428 | 646 | 786 | > 20000 | 25 |  |  |  | PSA_(221-240) (peptide) |  |  | 
2 |  | 961 | 117 | 219 | 719 |  |  | > 20000 | 997 | 351 | > 20000 | 880 | > 20000 | PSA_(171-190) (peptide) |  |  | 
3 |  |  |  |  |  |  |  |  |  |  |  |  |  | O=C(O)c1cn(C2CC2)c2cc(N3CCNCC3)c(F)cc2c1=O [ciprofloxacin] | no more effective than placebo at improving symptoms |  | 
4 |  |  |  |  |  |  |  |  |  |  |  |  |  | PSA: prostate specific antigen, normal self prostatic protein |  | can be recognized by CD4 lymphocytes | CD4 and CD8 T cells from men with GP can recognize PSA
5 | 25 | > 20000 | 296 | 374 | 211 | 132 |  | 93 | > 20000 | 4 | 28 |  | 24 | KSEEFQKRLHPYKDFIATLG [PAP_(173-192)] |  |  | 
6 | 25 | > 20000 | 39 | 28 | 164 |  |  |  | 339 | 1.5 | 964 | 82 |  | NPILLWQPIPVHTVPLSEDQ [PAP_(133-152)] |  |  | 
